# Measurements: paper PMC5678105
# Tests used:
# Assay in all cases: EMSA
# [1] = system: TALE_2c_26 (23) (Xanthomonas axonopodis scaffold (designed TALE)); conditions: 5mC at strand 1 nt 24 (site position 13, T = 0); EMSA: 20 mM Tris pH 8, 50 mM NaCl, 5 mM MgCl2, 5% glycerol; 0.1 pmol TALE + 0.5 pmol duplex in 10 uL; RT 30 min then ice 30 min; gel 0.5x TAE 4 C; GFP readout
# [2] = system: TALE_2c_26 (3) (Xanthomonas axonopodis scaffold (designed TALE)); conditions: 5mC at strand 1 nt 24 (site position 13, T = 0); EMSA: 20 mM Tris pH 8, 50 mM NaCl, 5 mM MgCl2, 5% glycerol; 0.1 pmol TALE + 0.5 pmol duplex in 10 uL; RT 30 min then ice 30 min; gel 0.5x TAE 4 C; GFP readout
# [3] = system: TALE_9a_26 K171A/R173A (Xanthomonas axonopodis scaffold (designed TALE)); conditions: 5mC at strand 1 nt 16 (site position 5, T = 0); EMSA: 20 mM Tris pH 8, 50 mM NaCl, 5 mM MgCl2, 5% glycerol; 0.1 pmol TALE + 0.5 pmol duplex in 10 uL; RT 30 min then ice 30 min; gel 0.5x TAE 4 C; GFP readout
# [4] = system: TALE_9a_26 K262A (Xanthomonas axonopodis scaffold (designed TALE)); conditions: 5mC at strand 1 nt 16 (site position 5, T = 0); EMSA: 20 mM Tris pH 8, 50 mM NaCl, 5 mM MgCl2, 5% glycerol; 0.1 pmol TALE + 0.5 pmol duplex in 10 uL; RT 30 min then ice 30 min; gel 0.5x TAE 4 C; GFP readout
# [5] = system: TALE_9a_26 R266A (Xanthomonas axonopodis scaffold (designed TALE)); conditions: 5mC at strand 1 nt 16 (site position 5, T = 0); EMSA: 20 mM Tris pH 8, 50 mM NaCl, 5 mM MgCl2, 5% glycerol; 0.1 pmol TALE + 0.5 pmol duplex in 10 uL; RT 30 min then ice 30 min; gel 0.5x TAE 4 C; GFP readout
# [6] = system: TALE_9a_26 (5*) (Xanthomonas axonopodis scaffold (designed TALE)); conditions: 5mC at strand 1 nt 16 (site position 5, T = 0); EMSA: 20 mM Tris pH 8, 50 mM NaCl, 5 mM MgCl2, 5% glycerol; 0.1 pmol TALE + 0.5 pmol duplex in 10 uL; RT 30 min then ice 30 min; gel 0.5x TAE 4 C; GFP readout
# [7] = system: TALE_9a_26 (3) (Xanthomonas axonopodis scaffold (designed TALE)); conditions: 5mC at strand 1 nt 16 (site position 5, T = 0); EMSA: 20 mM Tris pH 8, 50 mM NaCl, 5 mM MgCl2, 5% glycerol; 0.1 pmol TALE + 0.5 pmol duplex in 10 uL; RT 30 min then ice 30 min; gel 0.5x TAE 4 C; GFP readout
# [8] = system: TALE_9a_26 R236A (Xanthomonas axonopodis scaffold (designed TALE)); conditions: 5mC at strand 1 nt 16 (site position 5, T = 0); EMSA: 20 mM Tris pH 8, 50 mM NaCl, 5 mM MgCl2, 5% glycerol; 0.1 pmol TALE + 0.5 pmol duplex in 10 uL; RT 30 min then ice 30 min; gel 0.5x TAE 4 C; GFP readout
Sequence,binding signal (fold C/5mC selectivity vs WT TALE) [1],binding signal (fold C/5mC selectivity vs WT TALE) [2],binding signal (fold C/5mC selectivity vs WT TALE) [3],binding signal (fold C/5mC selectivity vs WT TALE) [4],binding signal (fold C/5mC selectivity vs WT TALE) [5],binding signal (fold C/5mC selectivity vs WT TALE) [6],binding signal (fold C/5mC selectivity vs WT TALE) [7],binding signal (fold C/5mC selectivity vs WT TALE) [8]
CATCCATGAGTGAGAAACCCTGGCGGGGTGTGACATCCTCCCCCGG (double strand) [2c_26 5mC],1.1,2.5,–,–,–,–,–,–
GGCCAGCCAGTCAGCCGAAGGCTCCATGCTGCTCCCCGCCGCCGGC (double strand) [9a_26 5mC],–,–,2.9,3,3,7.2,5.7,1.4
